Experimental data published in patent US20040157214A1.

Biological target: bovine thyroglobulin (bovine) (UniProt P01267)
Test: phage ELISA, 200 ug/ml thyroglobulin

Chain of bovine thyroglobulin (bovine) (P01267 20-2769 limits assumed): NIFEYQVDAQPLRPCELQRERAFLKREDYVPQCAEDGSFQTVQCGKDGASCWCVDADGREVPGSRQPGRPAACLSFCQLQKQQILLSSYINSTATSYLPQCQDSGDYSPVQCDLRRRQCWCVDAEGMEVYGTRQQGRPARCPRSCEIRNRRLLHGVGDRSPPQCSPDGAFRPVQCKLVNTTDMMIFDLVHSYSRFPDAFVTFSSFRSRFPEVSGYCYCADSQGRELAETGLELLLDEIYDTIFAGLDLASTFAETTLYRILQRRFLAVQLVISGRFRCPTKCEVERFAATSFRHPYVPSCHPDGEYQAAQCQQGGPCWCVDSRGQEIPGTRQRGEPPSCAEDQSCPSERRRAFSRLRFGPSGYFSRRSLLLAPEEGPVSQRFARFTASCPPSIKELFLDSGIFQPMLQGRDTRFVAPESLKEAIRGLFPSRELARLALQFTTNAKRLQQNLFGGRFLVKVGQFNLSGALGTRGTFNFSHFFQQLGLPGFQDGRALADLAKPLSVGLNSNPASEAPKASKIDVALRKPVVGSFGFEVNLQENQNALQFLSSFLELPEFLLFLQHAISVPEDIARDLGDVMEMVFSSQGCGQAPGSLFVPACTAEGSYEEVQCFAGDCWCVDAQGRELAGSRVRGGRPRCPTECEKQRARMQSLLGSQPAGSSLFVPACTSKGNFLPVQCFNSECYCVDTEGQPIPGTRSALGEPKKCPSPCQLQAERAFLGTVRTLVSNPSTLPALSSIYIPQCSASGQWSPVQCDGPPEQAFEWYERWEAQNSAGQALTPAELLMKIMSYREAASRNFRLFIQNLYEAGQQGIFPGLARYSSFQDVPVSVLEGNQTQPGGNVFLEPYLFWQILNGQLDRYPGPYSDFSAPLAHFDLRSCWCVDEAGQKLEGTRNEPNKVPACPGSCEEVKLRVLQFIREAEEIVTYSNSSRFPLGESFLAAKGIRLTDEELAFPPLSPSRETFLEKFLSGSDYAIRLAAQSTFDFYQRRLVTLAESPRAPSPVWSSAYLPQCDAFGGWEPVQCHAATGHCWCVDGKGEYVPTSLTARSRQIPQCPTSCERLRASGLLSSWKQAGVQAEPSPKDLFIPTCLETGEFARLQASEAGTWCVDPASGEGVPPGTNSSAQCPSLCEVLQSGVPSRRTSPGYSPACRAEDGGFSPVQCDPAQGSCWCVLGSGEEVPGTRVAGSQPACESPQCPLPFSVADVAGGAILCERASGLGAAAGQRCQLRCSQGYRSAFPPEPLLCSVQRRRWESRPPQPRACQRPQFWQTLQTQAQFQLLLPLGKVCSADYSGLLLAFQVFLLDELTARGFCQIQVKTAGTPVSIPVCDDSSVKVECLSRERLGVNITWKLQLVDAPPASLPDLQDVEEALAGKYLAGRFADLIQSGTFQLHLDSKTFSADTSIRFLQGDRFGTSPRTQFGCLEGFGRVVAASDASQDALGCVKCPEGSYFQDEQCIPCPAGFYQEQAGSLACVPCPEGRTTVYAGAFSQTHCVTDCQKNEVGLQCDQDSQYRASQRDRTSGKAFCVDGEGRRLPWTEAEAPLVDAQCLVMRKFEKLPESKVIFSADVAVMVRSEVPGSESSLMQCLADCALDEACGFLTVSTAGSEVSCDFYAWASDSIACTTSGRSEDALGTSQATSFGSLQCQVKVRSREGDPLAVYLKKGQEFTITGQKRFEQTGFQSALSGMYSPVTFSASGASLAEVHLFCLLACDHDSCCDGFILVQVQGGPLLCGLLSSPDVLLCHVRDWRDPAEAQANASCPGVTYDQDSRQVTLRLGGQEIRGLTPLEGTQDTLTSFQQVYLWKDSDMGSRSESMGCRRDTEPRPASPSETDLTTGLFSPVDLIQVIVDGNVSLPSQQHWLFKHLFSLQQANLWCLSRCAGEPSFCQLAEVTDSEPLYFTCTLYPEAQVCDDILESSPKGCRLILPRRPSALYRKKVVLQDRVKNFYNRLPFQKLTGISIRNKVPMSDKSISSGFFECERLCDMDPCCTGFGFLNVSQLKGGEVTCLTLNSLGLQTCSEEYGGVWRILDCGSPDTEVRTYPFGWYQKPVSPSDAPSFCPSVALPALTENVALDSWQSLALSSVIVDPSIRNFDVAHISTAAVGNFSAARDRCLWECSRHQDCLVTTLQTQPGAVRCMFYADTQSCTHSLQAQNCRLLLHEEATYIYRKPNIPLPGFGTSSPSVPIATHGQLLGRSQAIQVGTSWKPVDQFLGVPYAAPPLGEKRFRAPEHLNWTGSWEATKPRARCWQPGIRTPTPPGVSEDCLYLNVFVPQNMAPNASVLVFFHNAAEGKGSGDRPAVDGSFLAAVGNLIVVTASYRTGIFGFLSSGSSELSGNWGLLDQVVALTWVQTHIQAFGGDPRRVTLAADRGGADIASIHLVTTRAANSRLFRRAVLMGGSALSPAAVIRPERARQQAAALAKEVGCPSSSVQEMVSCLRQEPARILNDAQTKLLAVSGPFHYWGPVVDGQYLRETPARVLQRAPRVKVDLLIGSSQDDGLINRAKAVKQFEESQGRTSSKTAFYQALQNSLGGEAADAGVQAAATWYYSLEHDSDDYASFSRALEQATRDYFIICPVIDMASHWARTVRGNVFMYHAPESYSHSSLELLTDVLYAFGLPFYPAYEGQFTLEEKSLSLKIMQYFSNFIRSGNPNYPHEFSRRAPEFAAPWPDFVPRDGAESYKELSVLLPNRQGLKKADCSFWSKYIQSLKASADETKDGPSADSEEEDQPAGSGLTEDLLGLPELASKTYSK
Chain of pCAT-3 non-recombinant vector phagemid (P03661 19-424): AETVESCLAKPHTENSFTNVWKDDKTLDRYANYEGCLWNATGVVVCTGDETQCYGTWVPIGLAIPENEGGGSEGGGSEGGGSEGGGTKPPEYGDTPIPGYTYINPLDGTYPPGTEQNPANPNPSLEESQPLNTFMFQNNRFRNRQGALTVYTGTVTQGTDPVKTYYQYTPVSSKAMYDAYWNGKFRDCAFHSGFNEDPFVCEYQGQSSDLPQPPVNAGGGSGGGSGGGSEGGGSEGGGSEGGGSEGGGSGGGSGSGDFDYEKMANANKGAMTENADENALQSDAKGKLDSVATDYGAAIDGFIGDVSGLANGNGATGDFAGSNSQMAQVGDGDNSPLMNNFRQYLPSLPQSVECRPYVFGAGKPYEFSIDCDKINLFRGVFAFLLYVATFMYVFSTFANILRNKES

“pCAT-3 non-recombinant vector phagemid (from UniProt P03661 19-424)” gave an ELISA O.D. of 0.07 O.D.
